Data on 9 molecules can be found in article PMC8625570, “Selectivity Determinants of RHO GTPase Binding to IQGAPs” (International Journal of Molecular Sciences, 2021).

Common to all, as to conditions: both partners purified
One assay concerns the target CDC42 (aa 1-178) (human, UniProt P60953 1-178). Nature of the assay: SEC; analytical SEC of IQGAP1 GRD with CDC42^Q61L•GppNHp or CDC42^WT•GppNHp.
The target of another assay is CDC42^Q61L•GppNHp (human, UniProt P60953 1-178, Q61L). The description is as above.
Sequence of CDC42^Q61L•GppNHp (P60953 1-178 Q61L): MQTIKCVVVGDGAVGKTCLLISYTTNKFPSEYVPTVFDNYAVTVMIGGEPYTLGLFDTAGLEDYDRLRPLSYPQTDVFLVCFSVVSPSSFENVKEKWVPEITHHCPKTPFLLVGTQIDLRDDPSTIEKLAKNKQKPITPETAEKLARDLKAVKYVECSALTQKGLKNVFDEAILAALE
For assay [1], the target named is T1, IQGAP1^C794 (C-terminal half of human IQGAP1 with the GRD, RGCT and CT domains) (human, UniProt P46940 863-1657).
T1 sequence (looked up): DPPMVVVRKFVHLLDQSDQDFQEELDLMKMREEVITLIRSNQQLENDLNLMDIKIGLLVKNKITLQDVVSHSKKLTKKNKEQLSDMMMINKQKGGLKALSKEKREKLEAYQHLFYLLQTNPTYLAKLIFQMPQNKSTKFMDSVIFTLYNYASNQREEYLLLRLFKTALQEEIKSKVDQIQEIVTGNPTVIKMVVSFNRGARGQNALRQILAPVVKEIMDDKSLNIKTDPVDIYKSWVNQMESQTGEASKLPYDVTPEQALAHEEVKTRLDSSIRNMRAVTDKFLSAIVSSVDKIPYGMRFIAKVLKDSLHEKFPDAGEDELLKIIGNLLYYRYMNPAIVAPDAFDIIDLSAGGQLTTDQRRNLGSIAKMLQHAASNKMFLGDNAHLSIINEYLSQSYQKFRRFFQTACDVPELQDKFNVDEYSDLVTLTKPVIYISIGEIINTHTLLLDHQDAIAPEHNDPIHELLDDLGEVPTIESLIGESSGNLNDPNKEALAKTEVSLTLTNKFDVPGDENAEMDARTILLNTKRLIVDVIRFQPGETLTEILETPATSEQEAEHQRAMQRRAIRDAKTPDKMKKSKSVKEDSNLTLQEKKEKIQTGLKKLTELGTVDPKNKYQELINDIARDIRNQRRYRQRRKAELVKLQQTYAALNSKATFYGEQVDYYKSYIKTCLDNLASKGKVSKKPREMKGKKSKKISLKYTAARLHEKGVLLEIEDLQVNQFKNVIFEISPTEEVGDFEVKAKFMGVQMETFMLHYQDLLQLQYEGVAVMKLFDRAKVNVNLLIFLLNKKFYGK
Description: stopped-flow fluorescence spectrometry; kon from 0.2 µM mGppNHp-bound RHO GTPase with 2-8 µM IQGAP1^C794; koff by displacing with 10 µM unlabeled RAC1-GppNHp from 2 µM IQGAP1^C794 with 0.2 µM GTPase; Kd calculated from the rate constants; 25 °C.

A further assay addresses RAC1 (aa 1-179) (human, UniProt P63000 1-179). Nature of the assay: stopped-flow fluorescence spectrometry; competition: 4 µM IQGAP1^C794 premixed with 40 µM RAC-binding protein (10-fold molar excess), mixed 1:1 with 0.4 µM RAC1•mGppNHp; 25 °C.
Assay [2] addresses T2, IQGAP2^C795 (C-terminal fragment of IQGAP2) (human, UniProt Q13576 780-1575).
T2 construct: IQGAP2, aa 780-1575; also called IQGAP2^C975
T2 sequence (looked up): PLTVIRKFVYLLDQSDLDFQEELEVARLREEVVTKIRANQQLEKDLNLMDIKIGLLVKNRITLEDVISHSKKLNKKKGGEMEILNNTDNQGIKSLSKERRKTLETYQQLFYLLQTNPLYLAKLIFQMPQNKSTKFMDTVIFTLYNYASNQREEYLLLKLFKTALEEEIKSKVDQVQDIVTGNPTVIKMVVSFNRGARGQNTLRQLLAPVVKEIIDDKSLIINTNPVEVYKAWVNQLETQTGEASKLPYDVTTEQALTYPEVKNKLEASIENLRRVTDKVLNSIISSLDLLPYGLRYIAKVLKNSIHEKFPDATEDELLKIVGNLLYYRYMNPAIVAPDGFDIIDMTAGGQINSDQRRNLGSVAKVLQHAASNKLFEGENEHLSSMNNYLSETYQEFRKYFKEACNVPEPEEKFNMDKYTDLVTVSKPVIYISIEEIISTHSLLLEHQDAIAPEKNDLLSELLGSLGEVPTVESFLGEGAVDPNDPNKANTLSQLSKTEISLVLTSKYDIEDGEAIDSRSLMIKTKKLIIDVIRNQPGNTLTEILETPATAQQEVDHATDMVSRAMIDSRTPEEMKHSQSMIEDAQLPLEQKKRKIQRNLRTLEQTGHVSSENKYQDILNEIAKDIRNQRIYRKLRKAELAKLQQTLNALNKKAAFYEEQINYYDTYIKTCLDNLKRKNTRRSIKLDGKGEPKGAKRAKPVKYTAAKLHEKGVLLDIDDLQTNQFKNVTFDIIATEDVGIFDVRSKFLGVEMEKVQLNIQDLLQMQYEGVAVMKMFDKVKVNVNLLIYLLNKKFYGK
Nature of the assay: stopped-flow fluorescence spectrometry; association (kobs): 2 µM IQGAP1^C794 or IQGAP2^C795 mixed with 0.2 µM mGppNHp-bound RHO GTPase; 30 mM Tris-HCl pH 7.5, 10 mM K2HPO4/KH2PO4 pH 7.4, 2 mM MgCl2, 3 mM DTT, 25 °C.

Sequence of CDC42 (aa 1-178) (P60953 1-178): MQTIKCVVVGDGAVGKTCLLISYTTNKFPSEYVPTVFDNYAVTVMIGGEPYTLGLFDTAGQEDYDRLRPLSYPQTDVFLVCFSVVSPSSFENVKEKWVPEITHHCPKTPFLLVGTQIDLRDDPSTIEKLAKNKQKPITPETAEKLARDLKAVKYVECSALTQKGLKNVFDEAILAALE

B1: IQGAP1^GRD (RASGAP-related domain of IQGAP1) (domain or fragment, human, UniProt P46940 962-1345, looked up)
chain: SKEKREKLEAYQHLFYLLQTNPTYLAKLIFQMPQNKSTKFMDSVIFTLYNYASNQREEYLLLRLFKTALQEEIKSKVDQIQEIVTGNPTVIKMVVSFNRGARGQNALRQILAPVVKEIMDDKSLNIKTDPVDIYKSWVNQMESQTGEASKLPYDVTPEQALAHEEVKTRLDSSIRNMRAVTDKFLSAIVSSVDKIPYGMRFIAKVLKDSLHEKFPDAGEDELLKIIGNLLYYRYMNPAIVAPDAFDIIDLSAGGQLTTDQRRNLGSIAKMLQHAASNKMFLGDNAHLSIINEYLSQSYQKFRRFFQTACDVPELQDKFNVDEYSDLVTLTKPVIYISIGEIINTHTLLLDHQDAIAPEHNDPIHELLDDLGEVPTIESLIGESS
For B1, the entries for the “stoichiometry N” value with CDC42 (aa 1-178) and with CDC42^Q61L•GppNHp were 1 GRD per CDC42 (printed as 2:2) and 2 CDC42^Q61L per GRD (printed as 2:1; order taken from p-0007), respectively.

B2: CDC42 T25K/N26D (natural protein)
chain: not shown
With B2, the binding result in assay [1] is “binds”.

B3: CDC42 V85D/S88D (natural protein)
chain: not shown
Consider B3, for which the binding result in assay [1] is reported as “binds”.

B4: DOCK2 DHR2 (DOCK homology region 2 domain of DOCK2) (domain or fragment)
chain: YKDNNREEMYIRYLYKLRDLHLDCDNYTEAAYTLLLHTWLLKWSDEQCASQVMQTGQQHPQTHRQLKETLYETIIGYFDKGKMWEEAISLCKELAEQYEMEIFDYELLSQNLIQQAKFYESIMKILRPKPDYFAVGYYGQGFPSFLRNKVFIYRGKEYERREDFQMQLMTQFPNAEKMNTTSAPGDDVKNAPGQYIQCFTVQPVLDEHPRFKNKPVPDQIINFYKSNYVQRFHYSRPVRRGTVDPENEFASMWIERTSFVTAYKLPGILRWFEVVHMSQTTISPLENAIETMSTANEKILMMINQYQSDETLPINPLSMLLNGIVDPAVMGGFAKYEKAFFTEEYVRDHPEDQDKLTHLKDLIAWQIPFLGAGIKIHEKRVSDNLRPFHDRMEECFKNLKMKVEKEYGVREMPD
notes: human DOCK2 DHR2 domain, aa 1211-1624; also called DOCK DHR2; source: pOPIN vector, purified; the methods say all proteins except IQGAP2^C795 were isolated as GST fusions with GST cleaved
On to B4, for which the binding result with RAC1 (aa 1-179) was “binds”.

B5: CDC42 Q74D (natural protein)
chain: not shown
For B5, the binding result in assay [1] is “binds”.

B6: RHOG (aa 1-178) (natural protein)
chain: not shown
Consider B6, for which the binding result in assay [1] and in assay [2] was “binds” throughout.

B7: p50^GAP (GAP domain) (domain or fragment)
chain: HVKLEQLGIPRQVLKYDDFLKSTQKSPATAPKPMPPRPPLPNQQFGVSLQHLQEKNPEQEPIPIVLRETVAYLQAHALTTEGIFRRSANTQVVREVQQKYNMGLPVDFDQYNELHLPAVILKTFLRELPEPLLTFDLYPHVVGFLNIDESQRVPATLQVLQTLPEENYQVLRFLTAFLVQISAHSDQNKMTNTNLAVVFGPNLLWAKDAAITLKAINPINTFTKFLLDHQGELFPSPDPSGL
Turning to B7, the binding result in the assay with RAC1 (aa 1-179) is given as “binds”.

B8: RHOA-to-RAC1 variant (RHOA K27T, D28N, E47M, E54N, D76Q) (natural protein)
chain: not shown
Consider B8, for which the binding result in assay [1] is given as “binds”.

B9: PAK1 GBD (GTPase-binding domain of PAK1) (domain or fragment)
chain: SILPGDKTNKKKEKERPEISLPSDFEHTIHVGFDAVTGEFTGMPEQWARLLQTSNITKSEQKKNPQAVLDVLEFYNSKKTSNSQK
With B9, the binding result with RAC1 (aa 1-179) is recorded as “binds”.
